# Like-named read-outs stand apart in the source and are kept apart here.
# B1: F2B-hIgG1 (antibody, V domains shown)
# VH: EVQLVESGGGLVQPGRSLRLSCAASGFTFDDYAMHWVRQAPGKGLEWVSGISWNSGSIGYADSVKGRFTISRDNAKNSLYLQMNSLRAEDTALYYCAKDSRGYGDYRLGGAYWGQGTLVTVSS
# VL: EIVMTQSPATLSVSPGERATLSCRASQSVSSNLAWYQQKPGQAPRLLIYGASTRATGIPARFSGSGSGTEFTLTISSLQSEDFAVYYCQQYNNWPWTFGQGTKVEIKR
# notes: also called F2Bs
# B2: 40G5c-hIgG1 (antibody, V domains shown)
# VH: EVQLVQSGAEVKKPGASVKVSCKASGYTFTNYYIHWVRQAPGQGLEWIGWIYPGDGNTKYNEKFKGRATLTADTSTSTAYLELSSLRSEDTAVYYCARDSYSNYYFDYWGQGTLVTVSS
# VL: DIVMTQSPDSLAVSLGERATINCKSSQSLLNSRTRKNYLAWYQQKPGQPPKLLIYWASTRESGVPDRFSGSGSGTDFTLTISSLQAEDVAVYYCTQSFILRTFGQGTKVEIKR
# How the values were obtained:
# [1] = molecular target: T1, recombinant human CD3ε-ECD His protein (human, UniProt P07766 23-126); test: ELISA, coated antigen
# T1 construct: extracellular domain; also called human CD3ε-His; CD3ε antigen protein; not shown: His tag
# T1 sequence (P07766 23-126): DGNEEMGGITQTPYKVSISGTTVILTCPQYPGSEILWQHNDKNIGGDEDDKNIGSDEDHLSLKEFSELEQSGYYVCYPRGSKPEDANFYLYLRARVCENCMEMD
# Protocol: (§1) To detect the binding activity of the humanized antibodies to CD3 protein, CD3 protein was diluted with PBS to the final concentration of […], then added to a 96-well ELISA plate at 50 μL/well, and the plate was sealed with a plastic film, and incubated overnight at 4° C. On the next day, the plate was washed 2 times with PBS, and a blocking solution [PBS+2% (v/v) BSA] was added for blocking at room temperature for 2 h. The blocking solution was poured off, and the antibody (initial concentration of 100 nM, and gradient dilution at 1:10) or a negative control antibody was added at 50 µl/well. After incubation at 37° C. for 2 h, the plate was washed 3 times with PBS. […] TMB substrate was added at 50 μl/well, and incubated at room temperature for 10 min, and then a stop solution (1.0 N HCl) was added at 50 μl/well. The OD450 nm values were read by an ELISA microplate reader (Multimode Plate Reader, EnSight, purchased from Perkin Elmer).
# human CD3ε/δ-His [2] = molecular target: T2, human CD3ε/δ-His (human, UniProt P07766 23-126; P04234 22-105); test: ELISA, coated antigen
# T2 construct: Bought recombinant heterodimer with His tag; also called human CD3ε/δ protein
# T2 sequence (P07766 23-126, stated change not applied, form in doubt, chain 1 of 2): as the sequence (P07766 23-126) above
# T2 sequence (P04234 22-105, stated change not applied, form in doubt, chain 2 of 2): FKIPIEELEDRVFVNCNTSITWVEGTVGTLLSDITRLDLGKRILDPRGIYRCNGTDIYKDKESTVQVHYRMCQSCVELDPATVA
# Protocol: as §1
# [3] = molecular target: T3, human CD3 on the cell surface (Jurkat cells, expanded human T cells, Jurkat-Lucia NFAT cells, human PBMC) (human, UniProt P07766 23-207; P04234 22-171; P09693 23-182); test: cell-based or functional assay
# T3 sequence (P07766 23-207, chain 1 of 3): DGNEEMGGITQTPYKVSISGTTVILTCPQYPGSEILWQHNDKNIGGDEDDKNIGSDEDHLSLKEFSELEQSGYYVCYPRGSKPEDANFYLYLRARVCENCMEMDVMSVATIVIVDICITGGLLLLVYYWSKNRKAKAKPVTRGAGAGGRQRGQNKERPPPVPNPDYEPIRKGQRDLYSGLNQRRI
# T3 sequence (P04234 22-171, chain 2 of 3): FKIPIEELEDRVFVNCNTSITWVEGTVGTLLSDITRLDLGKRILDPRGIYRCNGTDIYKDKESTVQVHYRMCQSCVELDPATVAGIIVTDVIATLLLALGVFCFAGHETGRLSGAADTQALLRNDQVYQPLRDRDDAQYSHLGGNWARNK
# T3 sequence (P09693 23-182, chain 3 of 3): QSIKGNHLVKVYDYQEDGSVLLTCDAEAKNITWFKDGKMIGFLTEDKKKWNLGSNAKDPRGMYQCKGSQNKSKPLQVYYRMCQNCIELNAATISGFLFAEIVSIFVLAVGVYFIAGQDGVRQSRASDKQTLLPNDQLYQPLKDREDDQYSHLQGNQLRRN
# [4] = molecular target: T3, human CD3 on the cell surface (Jurkat …); test: FACS, Jurkat cells
# Protocol: (§2) The binding of the chimeric antibodies to CD3 on the cell surface was analyzed by detecting the binding of the antibodies to Jurkat cells and human T cells. Suspension cells Jurkat cells were scale-up cultured in T-75 cell culture flasks to the logarithmic growth phase, the supernatant of the medium was discarded by centrifugation, and the cell pellet was washed 2 times with PBS for later use. The expanded human T cells were washed 2 times with PBS for later use. After counting the cells in the previous step, the cell pellet was resuspended with [PBS+2% (w/w) BSA] blocking solution to 4×10⁶ cells/ml, and added to a 96-well FACS reaction plate at 50 μl/well, and then the chimeric antibody to be tested was added at 50 μl/well, and incubated at 4° C. for 1 h. The cells were centrifuged and washed 3 times with a PBS buffer. […] The cells were centrifuged and washed 5 times with PBS, and FACS (FACS Canto™, purchased from BD Company) was used for detection and result analysis. Data analysis was performed by software (CellQuest) to obtain the mean fluorescence […] (MFI) of the cells. And then software (GraphPad Prism8) was used for analysis, data fitting, and EC50 value calculation. The same method was used to simultaneously detect the binding of the chimeric antibodies to endogenous CD3 negative cells MOLT4 cells.
# [5] = molecular target: T3, human CD3 on the cell surface (Jurkat …); test: FACS, expanded human T cells
# Protocol: as §2
# [6] = molecular target: T3, human CD3 on the cell surface (Jurkat …); test: FACS, expanded human T cells; remark: listed apart in the source
# Protocol: as §2
# [7] = molecular target: T1, recombinant human CD3ε-ECD His protein; test: ELISA, coated antigen; remark: listed apart in the source
# Protocol: as §1
# human CD3ε/δ-His [8] = molecular target: T2, human CD3ε/δ-His; test: ELISA, coated antigen; remark: listed apart in the source
# Protocol: as §1
# [9] = molecular target: T3, human CD3 on the cell surface (Jurkat …); test: FACS, expanded human T cells; remark: listed apart in the source
# [10] = molecular target: T4, cynomolgus monkey CD3 on the surface of expanded monkey T cells (cynomolgus monkey, UniProt Q95LI5 22-198; Q95LI8 22-171; Q95LI7 23-181); test: FACS, expanded monkey T cells
# T4 construct: whole, on cells; Endogenous CD3 within the TCR-CD3 complex on T cells expanded from cynomolgus monkey PBMC
# T4 sequence (Q95LI5 22-198, chain 1 of 3): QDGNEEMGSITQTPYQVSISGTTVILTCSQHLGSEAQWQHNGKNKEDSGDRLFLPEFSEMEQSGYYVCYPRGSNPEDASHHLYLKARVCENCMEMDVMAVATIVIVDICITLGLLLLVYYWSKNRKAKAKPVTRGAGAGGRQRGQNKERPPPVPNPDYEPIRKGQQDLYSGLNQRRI
# T4 sequence (Q95LI8 22-171, chain 2 of 3): as the sequence (P04234 22-171, chain 2 of 3) above, with I5V, N15K, I20V, S32T, D33N, I34N, T64A, S74N, V83L, H141R counted along it
# T4 sequence (Q95LI7 23-181, chain 3 of 3): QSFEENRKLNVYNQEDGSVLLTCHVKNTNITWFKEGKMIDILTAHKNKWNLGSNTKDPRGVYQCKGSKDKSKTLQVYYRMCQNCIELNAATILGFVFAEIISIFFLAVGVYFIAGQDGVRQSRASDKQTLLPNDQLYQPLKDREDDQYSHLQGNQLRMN
# [11] = molecular target: T4, cynomolgus monkey CD3 on the surface of …; test: FACS, expanded monkey T cells, 4 nM antibody
# Protocol: as §2
# FACS detection and data analysis were performed on the cryopreserved monkey T cells of Example 2.4 according to the method in Example 5.1.
# [12] = molecular target: T3, human CD3 on the cell surface (Jurkat …); test: cell-based or functional assay; remark: listed apart in the source
# [13] = molecular target: T3, human CD3 on the cell surface (Jurkat …); test: FACS, expanded human T cells; remark: listed apart in the source
# Protocol: as §2
# [14] = molecular target: T3, human CD3 on the cell surface (Jurkat …); test: FACS, Jurkat cells; remark: listed apart in the source
# Protocol: as §2
Binder,max-OD450 [1] [OD450],max-OD450 (human CD3ε/δ-His [2]) [OD450],"EC50 (nM), luciferase reporter, Jurkat-Lucia NFAT cells [3] [nM]",Maximum response value (RLU) [3] [RLU],EC50 [4] [nM],MFI_Max [4] [MFI],EC50 [5] [nM],MFI_Max [5] [MFI],EC50 [6] [nM],MFI_Max [6] [MFI],max-OD450 [7] [OD450],max-OD450 (human CD3ε/δ-His [8]) [OD450],EC50 [9] [nM],max_MFI [9] [MFI],max_MFI [10] [MFI],MFI at antibody concentration 4 nM [11] [MFI],Maximum response value (RLU) [12] [RLU],EC50 [13] [nM],MFI_Max [13] [MFI],EC50 [14] [nM],also measured
B1,0.05,0.16,7.41,6560,8.77,841,5.71,5080,7.56,8780,0.16,0.16,7.03,9270,72,63,12000,10.4,1980,20.4,MFI_Max [14]: 4860 MFI
B2,1.49,2.83,5.04,14300,0.16,6340,0.99,26500,0.46,40900,2.59,2.83,2.09,33500,24100,41000,46900,0.7,12300,0.1,"EC50 [1]: 0.22 nM; EC50 (human CD3ε/δ-His [2]): 0.36 nM; EC50 [7]: 0.22 nM; EC50 (human CD3ε/δ-His [8]): 0.36 nM; EC50 [10]: 0.89 nM; EC50 (nM), luciferase reporter, Jurkat-Lucia NFAT cells [12]: 5.97 nM; MFI_Max [14]: 29500 MFI"

# From patent publication US20250136687A1 (SHANDONG SIMCERE BIOPHARMACEUTICAL, published 2025)
